Laboratory results taken from publication PMC6237735.
Values belong to the substance of their own block, whether it stands above or below them.

What was measured:
[1] = test system: Pa-30S small ribosomal subunit;Pa-aIF1* unlabeled (Pyrococcus abyssi;Pyrococcus abyssi); assay: competition; conditions: Kd of unlabeled aIF1* for 30S:mRNA; 180 nM mRNA; Anisotropy: 10 mM HEPES pH 7.5, 200 mM NaCl, 10 mM Mg acetate, 0.1% Tween 20, 51 C; toeprinting: 10 mM HEPES pH 7.5, 158 mM NaCl, 20 mM NH4Cl, 13.5 mM Mg …
[2] = test system: Pa-30S small ribosomal subunit;Pa-aIF1*-K34A (Pyrococcus abyssi;Pyrococcus abyssi); assay: fluorescence anisotropy; conditions: Anisotropy: 10 mM HEPES pH 7.5, 200 mM NaCl, 10 mM Mg acetate, 0.1% Tween 20, 51 C; toeprinting: 10 mM HEPES pH 7.5, 158 mM NaCl, 20 mM NH4Cl, 13.5 mM Mg …
[3] = test system: Pa-30S small ribosomal subunit;Pa-aIF1* (MDCC-coumarin labeled) (Pyrococcus abyssi;Pyrococcus abyssi); assay: fluorescence anisotropy; conditions: Kd of aIF1* for 30S:mRNA; best fit 0.2 nM; Anisotropy: 10 mM HEPES pH 7.5, 200 mM NaCl, 10 mM Mg acetate, 0.1% Tween 20, 51 C; toeprinting: 10 mM HEPES pH 7.5, 158 mM NaCl, 20 mM NH4Cl, 13.5 mM Mg …
[4] = test system: Pa-30S small ribosomal subunit;Pa-aIF1*-R31A (Pyrococcus abyssi;Pyrococcus abyssi); assay: fluorescence anisotropy; conditions: Anisotropy: 10 mM HEPES pH 7.5, 200 mM NaCl, 10 mM Mg acetate, 0.1% Tween 20, 51 C; toeprinting: 10 mM HEPES pH 7.5, 158 mM NaCl, 20 mM NH4Cl, 13.5 mM Mg …
[5] = test system: Pa-30S small ribosomal subunit;Pa-aIF1*-Y32A (Pyrococcus abyssi;Pyrococcus abyssi); assay: fluorescence anisotropy; conditions: Anisotropy: 10 mM HEPES pH 7.5, 200 mM NaCl, 10 mM Mg acetate, 0.1% Tween 20, 51 C; toeprinting: 10 mM HEPES pH 7.5, 158 mM NaCl, 20 mM NH4Cl, 13.5 mM Mg …
[6] = target: Pyrococcus abyssi small ribosomal subunit (Pa-30S) (Pyrococcus abyssi); assay: fluorescence polarisation; fluorescence anisotropy of coumarin-labeled aIF1 (50 nM for the variants; 13 nM for Pa-aIF1*) titrated with Pa-30S:mRNA complex (30S with a 2-fold molar excess of mRNA); 51°C; 10 mM HEPES pH 7.5, 200 mM NaCl, 10 mM MgAc, 0.1% Tween 20; quadratic fit
[7] = target: Pyrococcus abyssi small ribosomal subunit (Pa-30S) (Pyrococcus abyssi); assay: as above; remark: listed apart in the source
[8] = target: Pyrococcus abyssi small ribosomal subunit (Pa-30S) (Pyrococcus abyssi); assay: fluorescence polarisation; fluorescence anisotropy of coumarin-labeled aIF1* (50 nM) titrated with purified Pa-30S, no mRNA; 51°C; 10 mM HEPES pH 7.5, 200 mM NaCl, 10 mM MgAc, 0.1% Tween 20; quadratic fit
[9] = test system: Pa-30S small ribosomal subunit (Pyrococcus abyssi); assay: fluorescence anisotropy; conditions: 30S alone; mRNA 8 nM; Anisotropy: 10 mM HEPES pH 7.5, 200 mM NaCl, 10 mM Mg acetate, 0.1% Tween 20, 51 C; toeprinting: 10 mM HEPES pH 7.5, 158 mM NaCl, 20 mM NH4Cl, 13.5 mM Mg …
[10] = test system: Pa-30S small ribosomal subunit;Pa-aIF1 (Pyrococcus abyssi;Pyrococcus abyssi); assay: fluorescence anisotropy; conditions: preformed 30S:aIF1; mRNA 0.5 nM; Anisotropy: 10 mM HEPES pH 7.5, 200 mM NaCl, 10 mM Mg acetate, 0.1% Tween 20, 51 C; toeprinting: 10 mM HEPES pH 7.5, 158 mM NaCl, 20 mM NH4Cl, 13.5 mM Mg …
[11] = test system: Pa-aIF1* unlabeled (Pyrococcus abyssi); assay: competition; conditions: chase of labeled aIF1* from 30S; Anisotropy: 10 mM HEPES pH 7.5, 200 mM NaCl, 10 mM Mg acetate, 0.1% Tween 20, 51 C; toeprinting: 10 mM HEPES pH 7.5, 158 mM NaCl, 20 mM NH4Cl, 13.5 mM Mg …
[12] = test system: Pa-aIF1*-Y32A (Pyrococcus abyssi); assay: fluorescence anisotropy; conditions: Anisotropy: 10 mM HEPES pH 7.5, 200 mM NaCl, 10 mM Mg acetate, 0.1% Tween 20, 51 C; toeprinting: 10 mM HEPES pH 7.5, 158 mM NaCl, 20 mM NH4Cl, 13.5 mM Mg …
[13] = test system: Pa-aIF1*-K34A (Pyrococcus abyssi); assay: fluorescence anisotropy; conditions: Anisotropy: 10 mM HEPES pH 7.5, 200 mM NaCl, 10 mM Mg acetate, 0.1% Tween 20, 51 C; toeprinting: 10 mM HEPES pH 7.5, 158 mM NaCl, 20 mM NH4Cl, 13.5 mM Mg …
[14] = test system: Pa-aIF1* (MDCC-coumarin labeled) (Pyrococcus abyssi); assay: fluorescence anisotropy; conditions: aIF1* binding to 30S, no mRNA; Anisotropy: 10 mM HEPES pH 7.5, 200 mM NaCl, 10 mM Mg acetate, 0.1% Tween 20, 51 C; toeprinting: 10 mM HEPES pH 7.5, 158 mM NaCl, 20 mM NH4Cl, 13.5 mM Mg …
[15] = test system: Pa-aIF1*-R31A (Pyrococcus abyssi); assay: fluorescence anisotropy; conditions: Anisotropy: 10 mM HEPES pH 7.5, 200 mM NaCl, 10 mM Mg acetate, 0.1% Tween 20, 51 C; toeprinting: 10 mM HEPES pH 7.5, 158 mM NaCl, 20 mM NH4Cl, 13.5 mM Mg …
[16] = target: Pyrococcus abyssi small ribosomal subunit (Pa-30S) (Pyrococcus abyssi)

- Kd [6]: < 1 nM
- Kd [7]: 0.2 nM
- Kd [8]: 12 nM
Substance: Pa-aIF1* (Pyrococcus abyssi aIF1 K45C-C62S labeled with coumarin) (natural protein)

- Kd [6]: 45 nM
- Kd [8]: > 300 nM
Substance: Pa-aIF1*-K34A (natural protein)

- Kd [6]: < 3 nM
- Kd [8]: 84 nM
Substance: Pa-aIF1*-R31A (natural protein)

- factor concentration needed for a toeprinting pattern of 30S:mRNA:aIF1 like that of wt-Pa-aIF1 [16]: 8 fold
Substance: Pa-aIF1-K34A (natural protein)

More lines, now with the values behind:

Substance: AUUUGGAGGUGAUUUAAAUGCCAAAG [wt-aEF1A mRNA 26-mer, unlabeled]
- Kd [1]: 0.4 nM
- Kd [2]: 45 nM
- Kd [3]: < 1 nM
- Kd [4]: < 3 nM
- Kd [5]: 22 nM

Substance: AUUUGGAGGUGAUUUAAAUGCCAAAG [wt-aEF1A-mRNA 26-mer]
- Kd [9]: 3.3 nM
- Kd [10]: 0.07 nM

Substance: Pa-aIF1*-Y32A (natural protein)
- Kd [6]: 22 nM
- Kd [8]: 20 nM

Substance: Pa-30S (16S rRNA in small ribosomal subunit)
- Kd [11]: 40 nM
- Kd [12]: 20 nM
- Kd [13]: > 300 nM
- Kd [14]: 12 nM
- Kd [15]: 84 nM
